Measurements as given in US20060177894A1.

Legend:
[1] = biological target: rat lutropin receptor (LHR) (rat) (UniProt P16235); assay: receptor binding assay
[2] = biological target: rat lutropin receptor (LHR) (rat) (UniProt P16235); assay: cell-based or functional assay
[3] = biological target: rat lutropin receptor (LHR) (rat) (UniProt P16235); assay: inhibition of 125I-hCG binding to CHO cells with rat LHR; from IC50; acid-stable hCGβ-S138C analog

Sequence of rat lutropin receptor (LHR) (rat) (P16235 27-700): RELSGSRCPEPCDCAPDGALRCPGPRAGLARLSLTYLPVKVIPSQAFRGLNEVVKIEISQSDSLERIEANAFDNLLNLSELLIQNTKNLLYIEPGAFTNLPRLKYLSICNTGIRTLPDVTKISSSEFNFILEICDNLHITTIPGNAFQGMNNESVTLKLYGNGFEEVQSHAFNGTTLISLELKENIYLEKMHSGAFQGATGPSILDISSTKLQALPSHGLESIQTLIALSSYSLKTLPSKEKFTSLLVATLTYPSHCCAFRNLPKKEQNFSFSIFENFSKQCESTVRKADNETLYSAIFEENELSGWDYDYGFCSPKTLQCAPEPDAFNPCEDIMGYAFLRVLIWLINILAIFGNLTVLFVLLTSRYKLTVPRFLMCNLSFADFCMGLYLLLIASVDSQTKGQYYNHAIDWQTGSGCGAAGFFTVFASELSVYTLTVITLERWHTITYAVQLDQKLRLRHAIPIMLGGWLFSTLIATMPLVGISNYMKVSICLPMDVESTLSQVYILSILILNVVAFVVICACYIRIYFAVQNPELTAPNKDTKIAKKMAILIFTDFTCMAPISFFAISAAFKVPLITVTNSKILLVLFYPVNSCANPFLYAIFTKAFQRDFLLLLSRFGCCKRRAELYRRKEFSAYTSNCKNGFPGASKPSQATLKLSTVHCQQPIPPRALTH

| Substance | activity relative to hCG [1] | signaling assays [2] | Signal transduction potency (cAMP accumulation), acid-stable analog [2] | Receptor-Binding potency (percent hCG) [3] |
| --- | --- | --- | --- | --- |
| analog containing the entire carboxyterminal residues of the hCG β-subunit attached to the α-subunit (from UniProt P01215 25-116) (ligand) | > 50 % of hCG | 50 % of hCG |  |  |
| αT86C + hCGβ-S138C (from UniProt P01215 25-116; P0DN86 21-165) (ligand) |  |  | 0.18 % of hCG | 2.2 % of hCG |
| αY88C + hCGβ-S138C (from UniProt P01215 25-116; P0DN86 21-165) (ligand) |  |  | 0.12 % of hCG | 0.05 % of hCG |
